In the supplement of paper PMC7877785:
± gives the uncertainty stated by the source.

Test: self-splicing fitness, log relative to wild type (ln ratio); higher = more splicing; Tetrahymena group I intron in knt gene, E. coli kanamycin selection, DiMSum; sequences stand for … in CUCUCU…GGAGGGAAAAGUUAUCAGGCAUGCACCUGGUAGCUAGUCUUUAAACCAAUAGAUUGCAUCGGUUUAAAAGGCAAGACCGUCAAAUUGCGGGAAAGGGGUCAACAGCCGUUCAGUACCAAGUCUCAGGGGAAACUUUGAGAUGGCCUUGCAAAGGGUAUGGUAAUAAGCUGACGGACAUGGUCCUAACCACGCAGCCAAGUCCUAAGUCAACAGAUCUUCUGUUGAUAUGGAUGCAGUUCACAGACUAAAUGUCGGUCGGGGAAGAUGUAUUCUUCUCAUAAGAUAUAGUCGGACCUCUCCUUAAUGGGAGCUAGCGGAUGAAGUGAUGCAACACUGGAGCCGCUGGGAACUAAUUUGUAUGCGAAAGUAUAUUGAUUAGUUUUGGAGUACUCGUGGUCG
Method in brief: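 A randomised library covering all eight P1ex-region intron nucleotides was built with the intron in the knt kanamycin-resistance gene on pET-22b(+) and held in E. coli BL21(DE3). Cells were grown overnight at 37°C or 30°C on LB agar, with or without 25 μg/mL kanamycin, plus 100 μg/mL carbenicillin, 50 μM IPTG and 0.2% rhamnose, and pooled colonies were amplicon-sequenced on an Illumina HiSeq 2500. DiMSum fitness is the error-weighted combination of wild-type-normalised replicate fold changes, kanamycin versus none.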

Sequence | self-splicing fitness (ln) (30 °C) | self-splicing fitness (ln) (37 °C)
GAGUAGCAAUAUUACGAAUC | -2.47 ± 0.23 | -2.31 ± 0.24
GAGUAGCAAUAUUACGACUU | -3 ± 0.15 | -2.63 ± 0.24
GAGUAGCAAUAUUACGAGGU | -2.24 ± 0.35 | 
GAGUAGCAAUAUUACGAUGG | -2.33 ± 0.3 | -0.76 ± 0.28
GAGUAGCAAUAUUACGCUUG | -0.859 ± 0.088 | -0.313 ± 0.11
GAGUAGCAAUAUUACGGCUG | -1.21 ± 0.19 | -1.54 ± 0.27
GAGUAGCAAUAUUACGUAGA | -4.32 ± 0.28 | -2.18 ± 0.19
GAGUAGCAAUAUUACGUCAU | -2.58 ± 0.13 | -1.47 ± 0.13
GAGUAGCAAUAUUACGUGAU | -3.6 ± 0.33 | -2.12 ± 0.34
GAGUAGCAAUAUUACGUGUG | -2.73 ± 0.11 | -1.87 ± 0.12
GAUAAGCAAUAUUACGAAGA | -3.41 ± 0.24 | -1.7 ± 0.22
GAUAAGCAAUAUUACGACUA | -0.184 ± 0.086 | -0.149 ± 0.1
GAUAAGCAAUAUUACGAGCA | -2.12 ± 0.18 | -0.853 ± 0.16
GAUAAGCAAUAUUACGAGUA | -1.84 ± 0.15 | -1.45 ± 0.14
GAUAAGCAAUAUUACGAGUG | -1.04 ± 0.074 | -0.835 ± 0.066
GAUAAGCAAUAUUACGAUAU | -1.13 ± 0.095 | -0.335 ± 0.15
GAUAAGCAAUAUUACGAUGU | -0.525 ± 0.082 | -0.545 ± 0.1
GAUAAGCAAUAUUACGCAAC |  | -0.343 ± 0.46
GAUAAGCAAUAUUACGCACC | -1.96 ± 0.16 | -0.327 ± 0.2
GAUAAGCAAUAUUACGCCAU | -2.79 ± 0.21 | -1.72 ± 0.17
GAUAAGCAAUAUUACGCUCA | -1 ± 0.07 | 0.0635 ± 0.097
GAUAAGCAAUAUUACGCUGC | -2.88 ± 0.23 | -3.04 ± 0.3
GAUAAGCAAUAUUACGGAGU | -2.46 ± 0.16 | -0.942 ± 0.14
GAUAAGCAAUAUUACGGCUA | -0.974 ± 0.12 | 0.143 ± 0.15

Sequence | self-splicing fitness (ln) (30 °C) | self-splicing fitness (ln) (37 °C)
GAUAAGCAAUAUUACGGGGA |  | -2.16 ± 0.23
GAUAAGCAAUAUUACGGUAG | -3.17 ± 0.23 | -2.35 ± 0.27
GAUAAGCAAUAUUACGUCGU | -1.68 ± 0.072 | -0.373 ± 0.086
GAUAAGCAAUAUUACGUCUC | -1.74 ± 0.085 | -0.95 ± 0.1
GAUAAGCAAUAUUACGUCUU | -0.224 ± 0.069 | 0.135 ± 0.088
GAUCAGCAAUAUUACGAAAC | -0.961 ± 0.39 | 0.628 ± 0.41
GAUCAGCAAUAUUACGAAAG | -0.98 ± 0.14 | -1.2 ± 0.24
GAUCAGCAAUAUUACGAAAU | -0.667 ± 0.081 | 0.175 ± 0.1
GAUCAGCAAUAUUACGAAGA | -0.925 ± 0.11 | -0.0626 ± 0.11
GAUCAGCAAUAUUACGAAGG | -2.62 ± 0.13 | -1.59 ± 0.14
GAUCAGCAAUAUUACGAGAU | -3 ± 0.15 | -1.55 ± 0.13
GAUCAGCAAUAUUACGAUGC | -0.684 ± 0.12 | 0.0112 ± 0.12
GAUCAGCAAUAUUACGAUUC | -3.05 ± 0.38 | -1.79 ± 0.27
GAUCAGCAAUAUUACGCACC | -0.91 ± 0.18 | -0.086 ± 0.23
GAUCAGCAAUAUUACGCGAG | -0.684 ± 0.07 | -1.15 ± 0.073
GAUCAGCAAUAUUACGCUGU | -3.03 ± 0.21 | -2.38 ± 0.16
GAUCAGCAAUAUUACGGAAA | -1.01 ± 0.16 | -0.212 ± 0.17
GAUCAGCAAUAUUACGGACU | -0.52 ± 0.12 | -0.894 ± 0.13
GAUCAGCAAUAUUACGGGCU | -1.98 ± 0.085 | -1.4 ± 0.1
GAUCAGCAAUAUUACGGGGG | -3.25 ± 0.18 | -2.51 ± 0.18
GAUCAGCAAUAUUACGUCAC | -3.88 ± 0.2 | -2.13 ± 0.15
GAUCAGCAAUAUUACGUCUG | -2.63 ± 0.11 | -1.84 ± 0.1
GAUCAGCAAUAUUACGUGAG | -0.0667 ± 0.052 | 0.101 ± 0.074
GAUCAGCAAUAUUACGUUGC | -2.84 ± 0.27 | -3.1 ± 0.31
